From the supplement of paper PMC12764529 come the findings set out here.

± gives the half width of the 95% confidence interval.

Series [1] in a line: folding stability dG unfold from trypsin proteolysis; higher = more stable. A digest of the protocol:
(§1)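 Unfolding free energy was derived, per protease or combined, by relating Bayesian-fitted K50 values from sequencing counts to a sequence-predicted unfolded-state K50 and a shared folded-state K50. The underlying digests exposed cysteine-free mini-proteins under 80 residues, in a PA-tagged cDNA display construct, to trypsin and chymotrypsin at 11 threefold-diluted concentrations and to a no-protease condition. A filter kept only designs with AlphaFold2 dimer inter-PAE above 15.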

Series [2] is described as follows: folding stability dG unfold from chymotrypsin proteolysis; higher = more stable. Put shortly:
as §1

Series [3] is described as follows: folding stability dG unfold (combined trypsin and chymotrypsin); higher = more stable. Put shortly: as §1

“SANVRRREIRIPAKDMPPNQIRDALRDLGFPPSKIENLDIERHKGNMITVKIYWTFENGQKQKIELHIPSAG [r14_30_TrROS]”: the “folding stability dG unfold” value in series [1] is -0.105 ± 0.24 kcal/mol; in series [2], 1.29 ± 0.21 kcal/mol; in series [3] it was 1.11 ± 0.19 kcal/mol.
For “SANWHRFTIEAWVPVRDPNGKPIRPEQVEEQAERIANELWPRGFPIKDVTVEQHPDGWVRITATIEVPDSAG [r14_470_TrROS]” the same measures were 2.47 ± 0.08 kcal/mol, 3.137 ± 0.022 kcal/mol and 2.94 ± 0.11 kcal/mol.
For “SAPDKIEIPITFPNGYTFWIKIDPDRIRVTWMDNGLRREKEITPDGMIKLDFRMPNGRPIMSPTIPLEDSAG [r14_213_TrROS]” the same measures were 0.984 ± 0.028 kcal/mol, 1.93 ± 0.12 kcal/mol and 1.54 ± 0.059 kcal/mol.
With “SAPDVGPEERARRLIEEARAEVEAARAAGDPSVPRRVVFDELAVAHPEEAARILEEAARLGIPVEVRPPSAG [r14_908_JUSTAS]”, the “folding stability dG unfold” value is 0.252 ± 0.11 kcal/mol in series [1], 0.98 ± 0.044 kcal/mol in series [2] and 0.748 ± 0.083 kcal/mol in series [3].
For “SAPILPDAVVSEKPSVSQLPGNSTLVTTTYTYPGGPTITKTTTYTVDPSTGKWTTTSSTTLTPEAAAAASAG [r14_842_JUSTAS]”, in that order: 0.377 ± 0.041 kcal/mol, 0.977 ± 0.075 kcal/mol and 0.754 ± 0.066 kcal/mol.
For “SAPKIDSISIMWPGNHWYISIWYPDKNGEPMKEVMFPFESPEDLKDQIEELSPPGDVTVDIYPMPPDAFSAG [r14_964_TrROS]”, in that order: 1.38 ± 0.047 kcal/mol, 1.54 ± 0.036 kcal/mol and 1.51 ± 0.098 kcal/mol.
“SAPKLEIEEVHVNPNDGMVMITFQIDNLPPGLKITIKPKNGKPRRWTGEPGKPIMFMIPPGVDDIEIEWSAG [r14_671_TrROS]”: the “folding stability dG unfold” value in series [1] turned out to be 1.64 ± 0.048 kcal/mol; in series [2], 2.06 ± 0.11 kcal/mol; in series [3], 1.94 ± 0.15 kcal/mol.
For “SAPKNYRFKIYFPNGVEFTIPPGWDLEIEEFDPEDGVIRIKMTRYDKDDGKPVEKHDFPFPFRILEPDPSAG [r14_927_TrROS]”, in that order: 1.73 ± 0.06 kcal/mol, 1.84 ± 0.23 kcal/mol and 1.89 ± 0.25 kcal/mol.
Take “SAPLDPDQAKEQAENIADYFQDEMQDQFGMDPSDIDVDVKVEQEPNGHYRITVEITMGNMPIEMEIYVPSAG [r14_226_TrROS]”: the “folding stability dG unfold” value in series [1] turned out to be 1.45 ± 0.11 kcal/mol; in series [2] it was 2.1 ± 0.049 kcal/mol; in series [3], 1.8 ± 0.12 kcal/mol.
For “SAPLKIDLDIEPIPPGDKVRFNARITYPDGHPIRIPFEIYVPPDEIVIKFPIQDPKNGEPIAPLTFVIKSAG [r14_670_TrROS]”, in that order: 1.53 ± 0.046 kcal/mol, 1.97 ± 0.2 kcal/mol and 1.67 ± 0.19 kcal/mol.
For “SAPLTPEEAEEWAETLADELADKAGIPNVEIKVEPSPDGYWTAEIRFPNNGKKIRITWENGRPKITEIESAG [r14_925_TrROS]”, in that order: 2.84 ± 0.2 kcal/mol, 2.63 ± 0.093 kcal/mol and 2.74 ± 0.16 kcal/mol.
For “SAPPLPPETITLTLTIDGYEITVTLTRLPDGTVKLTVTVTLPDGTTVTITMYFDAKTNKWYITKIEITPPSA [r9_795_TrROS_Hall]”, in that order: 4.04 ± 0.48 kcal/mol, 5.19 ± 0.12 kcal/mol and 5.26 ± 0.33 kcal/mol.
In the case of “SAPPPVQTLTLTVYDPETGRLVKIEVTRRPDGTLEVRVEVVDLETNEVTTETITLPGLTLDELLKLLEEASA [r9_618_TrROS_Hall]”, the entries for the “folding stability dG unfold” value in series [1], in series [2] and in series [3] were 3.09 ± 0.16 kcal/mol, 4.02 ± 0.16 kcal/mol and 3.65 ± 0.16 kcal/mol, respectively.
For “SAPPRTFIIPIERNPDGNVRLNIRMPGMEIEYEFPPGKDAEDALDKLSPHPGFNVELTEVDPNWIKITFSAG [r14_404_TrROS]”, in that order: 1.3 ± 0.23 kcal/mol, 1.75 ± 0.35 kcal/mol and 1.28 ± 0.48 kcal/mol.
For “SAPSPKTPETLVFLSEEESEVVEERLSPSGKPFLVKRKRRFLRYRYVDEDGNVTSVGEREEPVEEELVLSAG [r14_934_JUSTAS]”, in that order: 0.985 ± 0.094 kcal/mol, 0.231 ± 0.13 kcal/mol and 0.672 ± 0.087 kcal/mol.
For “SAPSPSVPLDPVTTETVLVKDPEKGEEITLEILTDANSDEVLVRITYPDGSEVVLRLKKEEVEKVIEALSAG [r14_240_JUSTAS]” the same measures were 4 ± 0.37 kcal/mol, 3.08 ± 0.11 kcal/mol and 3.41 ± 0.12 kcal/mol.
Consider “SAPVIEITEVTFNPDGSVEVTLVIPFPDDPEIPPEEIAKAIKEAFGFEEVTVEPIPETGAWRITLRAPGSAG [r14_228_TrMRF]”, for which the “folding stability dG unfold” value in series [1] was found to be 3.4 ± 0.14 kcal/mol; in series [2], 4.18 ± 0.089 kcal/mol; in series [3], 4.07 ± 0.12 kcal/mol.
For “SAPVVVVETIPDGGVLIVPAVFEPDKLLEYVEEIVNKIKPKGAEVEAKVIKVEPFEDFVVVTFEVKVKPSAG [r14_345_TrMRF]”, in that order: 1.69 ± 0.12 kcal/mol, 1.7 ± 0.032 kcal/mol and 1.68 ± 0.16 kcal/mol.
